Assay results from the supplement of paper PMC5998384.

What was measured:
HeLa Kyoto [1] = experiment: solubility in G1/S (NP-40 vs SDS abundance) (log2 ratio); higher = more soluble; conditions: cell cycle stage: G1/S
HeLa Kyoto [2] = experiment: melting temperature (median over replicates), in situ; higher = more thermally stable
HeLa Kyoto [3] = experiment: solubility change mitosis vs G1/S (difference of NP-40 vs SDS log2 ratios) (log2 ratio difference); higher = more soluble in mitosis
HeLa Kyoto [4] = experiment: thermal stability score vs G1/S (z-score of summed log2 fold changes over temperatures); higher = more thermally stable than in G1/S
[5] = cell cycle stage: early G1 (4.5 h after nocodazole release)
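Throughout, for melting temperature (median over replicates), in situ: HeLa Kyoto cells synchronized by double thymidine or nocodazole block, proteins quantified by TMT10plex mass spectrometry, three independent biological replicates.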
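Throughout, for solubility change mitosis vs G1/S (difference of NP-40 vs SDS log2 ratios): synchronized HeLa Kyoto cells (double thymidine block for G1/S, nocodazole release for mitosis), protein amounts in NP-40 versus SDS lysates quantified by mass spectrometry, three biological replicates.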
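Throughout, for solubility in G1/S (NP-40 vs SDS abundance): HeLa Kyoto cells arrested at G1/S by double thymidine block, proteins quantified by TMT10plex mass spectrometry in mild NP-40 versus SDS extracts, three biological replicates.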
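Throughout, for thermal stability score vs G1/S (z-score of summed log2 fold changes over temperatures): synchronized HeLa Kyoto cells, proteins quantified by TMT10plex mass spectrometry, three biological replicates, mitosis taken 0.5 h after nocodazole release, G1/S directly after double thymidine block.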

Substance	solubility in G1/S (log2) (HeLa Kyoto [1])	melting temperature (HeLa Kyoto [2]; cell cycle stage: G1/S) [°C]	melting temperature (HeLa Kyoto [2]; cell cycle stage: mitosis) [°C]	solubility change mitosis (log2) (HeLa Kyoto [3])	thermal stability score (HeLa Kyoto [4]; [5])	thermal stability score (HeLa Kyoto [4]; cell cycle stage: mitosis)
MSGEENPASKPTPVQDVQGDGRWMSLHHRFVADSKDKEPEVVFIGDSLVQLMHQCEIWRELFSPLHALNFGIGGDGTQHVLWRLENGELEHIRPKIVVVWVGTNNHGHTAEQVTGGIKAIVQLVNERQPQARVVVLGLLPRGQHPNPLREKNRQVNELVRAALAGHPRAHFLDADPGFVHSDGTISHHDMYDYLHLSRLGYTPVCRALHSLLLRLLAQDQGQGAPLLEPAP [PAFAH1B3]	0.751	50.6	51	-0.0232	0.482	1.01
MRLTRCQAALAAAITLNLLVLFYVSWLQHQPRNSRARGPRRASAAGPRVTVLVREFEAFDNAVPELVDSFLQQDPAQPVVVAADTLPYPPLALPRIPNVRLALLQPALDRPAAASRPETYVATEFVALVPDGARAEAPGLLERMVEALRAGSARLVAAPVATANPARCLALNVSLREWTARYGAAPAAPRCDALDGDAVVLLRARDLFNLSAPLARPVGTSLFLQTALRGWAVQLLDLTFAAARQPPLATAHARWKAEREGRARRAALLRALGIRLVSWEGGRLEWFGCNKETTRCFGTVVGDTPAYLYEERWTPPCCLRALRETARYVVGVLEAAGVRYWLEGGSLLGAARHGDIIPWDYDVDLGIYLEDVGNCEQLRGAEAGSVVDERGFVWEKAVEGDFFRVQYSESNHLHVDLWPFYPRNGVMTKDTWLDHRQDVEFPEHFLQPLVPLPFAGFVAQAPNNYRRFLELKFGPGVIENPQYPNPALLSLTGSG [FKRP]	0.127	54.5	55.1	0.00852	-1.33	0.366
MNKPITPSTYVRCLNVGLIRKLSDFIDPQEGWKKLAVAIKKPSGDDRYNQFHIRRFEALLQTGKSPTSELLFDWGTTNCTVGDLVDLLIQNEFFAPASLLLPDAVPKTANTLPSKEAITVQQKQMPFCDKDRTLMTPVQNLEQSYMPPDSSSPENKSLEVSDTRFHSFSFYELKNVTNNFDERPISVGGNKMGEGGFGVVYKGYVNNTTVAVKKLAAMVDITTEELKQQFDQEIKVMAKCQHENLVELLGFSSDGDDLCLVYVYMPNGSLLDRLSCLDGTPPLSWHMRCKIAQGAANGINFLHENHHIHRDIKSANILLDEAFTAKISDFGLARASEKFAQTVMTSRIVGTTAYMAPEALRGEITPKSDIYSFGVVLLEIITGLPAVDEHREPQLLLDIKEEIEDEEKTIEDYIDKKMNDADSTSVEAMYSVASQCLHEKKNKRPDIKKVQQLLQEMTAS [IRAK4]	0.372	50.6	49.9	-0.193	0.383	1.05
MAAAKVALTKRADPAELRTIFLKYASIEKNGEFFMSPNDFVTRYLNIFGESQPNPKTVELLSGVVDQTKDGLISFQEFVAFESVLCAPDALFMVAFQLFDKAGKGEVTFEDVKQVFGQTTIHQHIPFNWDSEFVQLHFGKERKRHLTYAEFTQFLLEIQLEHAKQAFVQRDNARTGRVTAIDFRDIMVTIRPHVLTPFVEECLVAAAGGTTSHQVSFSYFNGFNSLLNNMELIRKIYSTLAGTRKDVEVTKEEFVLAAQKFGQVTPMEVDILFQLADLYEPRGRMTLADIERIAPLEEGTLPFNLAEAQRQKASGDSARPVLLQVAESAYRFGLGSVAGAVGATAVYPIDLVKTRMQNQRSTGSFVGELMYKNSFDCFKKVLRYEGFFGLYRGLLPQLLGVAPEKAIKLTVNDFVRDKFMHKDGSVPLAAEILAGGCAGGSQVIFTNPLEIVKIRLQVAGEITTGPRVSALSVVRDLGFFGIYKGAKACFLRDIPFSAIYFPCYAHVKASFANEDGQVSPGSLLLAGAIAGMPAASLVTPADVIKTRLQVAARAGQTTYSGVIDCFRKILREEGPKALWKGAGARVFRSSPQFGVTLLTYELLQRWFYIDFGGVKPMGSEPVPKSRINLPAPNPDHVGGYKLAVATFAGIENKFGLYLPLFKPSVSTSKAIGGGP [SLC25A13]	0.0358	55.3	55.3	-0.142	-1.62	-1.29
MADKEAGGSDGPRETAPTSAYSSPARSLGDTGITPLSPSHIVNDTDSNVSEQQSFLVVVAVDFGTTSSGYAYSFTKEPECIHVMRRWEGGDPGVSNQKTPTTILLTPERKFHSFGYAARDFYHDLDPNEAKQWLYLEKFKMKLHTTGDLTMDTDLTAANGKKVKALEIFAYALQYFKEQALKELSDQAGSEFENSDVRWVITVPAIWKQPAKQFMRQAAYQAGLASPENSEQLIIALEPEAASIYCRKLRLHQMIELSSKAAVNGYSGSDTVGAGFTQAKEHIRRNRQSRTFLVENVIGEIWSELEEGDKYVVVDSGGGTVDLTVHQIRLPEGHLKELYKATGGPYGSLGVDYEFEKLLYKIFGEDFIEQFKIKRPAAWVDLMIAFESRKRAAAPDRTNPLNITLPFSFIDYYKKFRGHSVEHALRKSNVDFVKWSSQGMLRMSPDAMNALFKPTIDSIIEHLRDLFQKPEVSTVKFLFLVGGFAEAPLLQQAVQAAFGDQCRIIIPQDVGLTILKGAVLFGLDPAVIKVRRSPLTYGVGVLNRYVEGKHPPEKLLVKDGTRWCTDVFDKFISADQSVALGELVKRSYTPAKPSQLVIVINIYSSEHDNVSFITDPGVKKCGTLRLDLTGTSGTAVPARREIQTLMQFGDTEIKATAIDIATSKSVKVGIDFLNY [HSPA12A]	-0.123	52.1	52.7	-0.113	0.628	1
MELSAEYLREKLQRDLEAEHVEVEDTTLNRCSCSFRVLVVSAKFEGKPLLQRHRLVNACLAEELPHIHAFEQKTLTPDQWARERQK [BOLA2]	-0.0477	50.9	51.9	0.186	0.374	0.288
PROSC	0.225	48.8	49.7	-0.0262	1.09	0.951
